Data taken from PMC3662692.

What was measured:
[1] = biological target: p85 regulatory subunit of PI3 kinase (PI3K-p85; p85α in Table 1) (UniProt P27986); test: biotin-peptide streptavidin-agarose pull-down, Western blot; settings: reference: non-phosphorylated Cav1 peptide; sites Y14
[2] = biological target: phospholipase Cγ1 (PLCγ1) (UniProt P19174); test: as above; settings: reference: non-phosphorylated Cav1 peptide; sites Y14
[3] = biological target: T1, caveolin-1 (human (endogenous in Chang cells)), Q03135; test: co-IP; as a1, but Chang cells infected with N138 (PorBIB, P+) at MOI 20 for 1 h; endogenous Cav1 precipitated, Western blot; settings: remark: other sources report otherwise
T1 chain: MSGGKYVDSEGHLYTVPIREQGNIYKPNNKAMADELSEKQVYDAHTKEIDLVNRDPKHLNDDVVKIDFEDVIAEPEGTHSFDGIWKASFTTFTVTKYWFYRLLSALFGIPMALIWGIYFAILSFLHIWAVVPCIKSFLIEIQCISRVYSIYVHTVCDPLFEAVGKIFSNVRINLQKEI

[4] = biological target: T1, caveolin-1 (human (endogenous in Chang …)); test: co-IP; endogenous Cav1 precipitated with anti-Caveolin antibody (BD Transduction) and Protein G magnetic beads from Chang cell lysates (20 mM Tris, 150 mM NaCl, 1% Triton-X-100, pH 7.5); cells not infected or infected with N927 (PorBIA, P-) at MOI 20 for 1 h; in one experiment PLCγ1 inhibitor U73122 (10 µM) added 30 min before infection; Western blot; settings: remark: other sources report otherwise

caveolin-1 (Cav1) 7-21 (from UniProt Q03135) Cav1 pY14 peptide
binding against the reference [1]: gained
binding against the reference [2]: gained

B1: Vav2, P52735 1-878 (natural protein)
chain: MEQWRQCGRWLIDCKVLPPNHRVVWPSAVVFDLAQALRDGVLLCQLLHNLSPGSIDLKDINFRPQMSQFLCLKNIRTFLKVCHDKFGLRNSELFDPFDLFDVRDFGKVISAVSRLSLHSIAQNKGIRPFPSEETTENDDDVYRSLEELADEHDLGEDIYDCVPCEDGGDDIYEDIIKVEVQQPMIRYMQKMGMTEDDKRNCCLLEIQETEAKYYRTLEDIEKNYMSPLRLVLSPADMAAVFINLEDLIKVHHSFLRAIDVSVMVGGSTLAKVFLDFKERLLIYGEYCSHMEHAQNTLNQLLASREDFRQKVEECTLKVQDGKFKLQDLLVVPMQRVLKYHLLLKELLSHSAERPERQQLKEALEAMQDLAMYINEVKRDKETLRKISEFQSSIENLQVKLEEFGRPKIDGELKVRSIVNHTKQDRYLFLFDKVVIVCKRKGYSYELKEIIELLFHKMTDDPMNNKDVKKSHGKMWSYGFYLIHLQGKQGFQFFCKTEDMKRKWMEQFEMAMSNIKPDKANANHHSFQMYTFDKTTNCKACKMFLRGTFYQGYMCTKCGVGAHKECLEVIPPCKFTSPADLDASGAGPGPKMVAMQNYHGNPAPPGKPVLTFQTGDVLELLRGDPESPWWEGRLVQTRKSGYFPSSSVKPCPVDGRPPISRPPSREIDYTAYPWFAGNMERQQTDNLLKSHASGTYLIRERPAEAERFAISIKFNDEVKHIKVVEKDNWIHITEAKKFDSLLELVEYYQCHSLKESFKQLDTTLKYPYKSRERSASRASSRSPASCASYNFSFLSPQGLSFASQGPSAPFWSVFTPRVIGTAVARYNFAARDMRELSLREGDVVRIYSRIGGDQGWWKGETNGRIGWFPSTYVEEEGIQ
relative amount of Vav2 in the Cav1 precipitate, cells infected with N138 (non-infected cells = 100%) [3]: 99%
relative amount of Vav2 in the Cav1 precipitate, cells infected with N927 (non-infected cells = 100%) [4]: 50%
relative amount of Vav2 in the Cav1 precipitate, non-infected cells (reference) [4]: 100%
